# Results taken from IntAct's records for PubMed 22632831.
# B1: Transcription cofactor vestigial-like protein 1 (Mus musculus), Q99NC0 (parent)
# chain: MEEMKKNGVWIPESSQKPVKTEWNAGSVIFTYFEGDINSMVDEHFSRALRNLKRPHKCSSSSHSDNLTLKNGVNKTRTDTSHTDRERKVESSQTENSGELKDVPVEEKGTNKSMPPNQRHLSSWTIAQPAASPENGARSSSLDEYGLKAMDQHSLSMPKTPSALPLEPWHFSSLARPGFIAPAYFPVFPDRHLTPEVYRVFPDRHLTPEVYHVFPDRHLTPEVYPDGRCGPLQHLVQQDRYQNHPLEPAARENCSPAKIAGSTGSLMNLPPYPVHYKKKICARGAASASLDDERSPSPKRRRDAYYY
# Variants of: B1
# Conditions: with Tead4, Q62296-1
# Tead4, Q62296-1, sequence (Q62296 whole entry): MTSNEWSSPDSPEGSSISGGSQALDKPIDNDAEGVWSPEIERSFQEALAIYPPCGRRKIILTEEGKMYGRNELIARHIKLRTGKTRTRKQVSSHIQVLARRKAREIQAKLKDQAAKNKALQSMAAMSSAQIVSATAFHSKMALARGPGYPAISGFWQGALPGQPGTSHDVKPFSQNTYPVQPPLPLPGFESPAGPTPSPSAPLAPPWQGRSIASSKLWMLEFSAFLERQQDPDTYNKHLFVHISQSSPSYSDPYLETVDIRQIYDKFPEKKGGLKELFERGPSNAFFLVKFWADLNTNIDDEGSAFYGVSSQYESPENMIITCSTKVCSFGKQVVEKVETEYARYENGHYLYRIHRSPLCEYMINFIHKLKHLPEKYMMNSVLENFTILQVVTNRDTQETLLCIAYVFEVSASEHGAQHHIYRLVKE
row,Variant,effect of a mutation on the interaction
1,MEEMKKNGVWIPESSQKPVKTEWNAGSVIFTYFEGDINSMVDEAASRALRNLKRPHKCSSSSHSDNLTLKNGVNKTRTDTSHTDRERKVESSQTENSGELKDVPVEEKGTNKSMPPNQRHLSSWTIAQPAASPENGARSSSLDEYGLKAMDQHSLSMPKTPSALPLEPWHFSSLARPGFIAPAYFPVFPDRHLTPEVYRVFPDRHLTPEVYHVFPDRHLTPEVYPDGRCGPLQHLVQQDRYQNHPLEPAARENCSPAKIAGSTGSLMNLPPYPVHYKKKICARGAASASLDDERSPSPKRRRDAYYY [H44A;F45A],decreasing interaction strength
